Source: PMC10022624, “A mini-TGA protein modulates gene expression through heterogeneous association with transcription factors” (Plant Physiology, 2022)

B1: His6-tagged StTGA2.1, recombinant (natural protein, potato (Solanum tuberosum), UniProt A0A9F1U434 1-270, looked up)
chain: MDAMGDREGPRLVSSTALWRGDRRPAQVVQVSQLEQDFQRAPQQRESGSLPFDTEYSRWLEEHTKHINELRTAVNSHASDPELRSMVDSVIAHYDEVYRMKANAAKGNVEHLLSGMWKTPAERCSMWIGDFRPSLLLKLLVNQVEPLTEQQLIGIVNLQQSSQQAEDALSQDMEAWQQSLEVTLAYGSLATEGSSGDAAYNISQMAMAMGILGTLEGFLRQADNLRQQTLQQMHRMLTTRQSARALLAISEYFSRLRALSSLWLARPREQ
notes: StTGA2.1, potato (Solanum tuberosum) cultivar Rywal; full-length cds in pMCSG7; C-terminal region printed as aa 47-240; Dimer by SEC elution volume; The tag is removable by TEV protease; not shown: His6, N-terminal, kept
B2: PRX07p_1 (dsDNA)
DNA 1: GTTACTACTCGAGCGTGTGCCCAACGTCACAATCC
DNA 2: GGATTGTGACGTTGGGCACA
B3: PRX07p_2 (dsDNA)
DNA 1: GTTACTACTCGAGCGTTAGGGGTGACGTTTCCAAT
DNA 2: ATTGGAAACGTCACCCCTAA
B4: PRX15p_1 (dsDNA)
DNA 1: GTTACTACTCGAGCGTTTAATAATGATGACATTTG
DNA 2: CAAATGTCATCATTATTAAA
B5: PRX46p (dsDNA)
DNA 1: GTTACTACTCGAGCGTGAACCTGAGGTCAACCGTT
DNA 2: AACGGTTGACCTCAGGTTCA

Key:
[1] = molecular target: HA-tagged StTGA2.3, expressed in N. benthamiana (potato (Solanum tuberosum))
[2] = molecular target: the molecule itself; test: SEC; His6-tagged StTGA2.1; oligomeric state from elution volume against the Gel Filtration LMW calibration kit; 30 mM Tris pH 7.5, 400 mM NaCl
[3] = molecular target: T1, StTGA2.3;StTGA2.1 (mini-TGA) (Solanum tuberosum cv. Rywal;Solanum …, UniProt A0A9F1U446;A0A9F1U434 1-327;1-270, |); test: SPR; premixed with 300 nM StTGA2.1; higher response than StTGA2.3 alone; SPR Biacore T200, 25 C, 25 mM Tris pH 7.4, 140 mM NaCl (180 mM for StTGA2.1 alone), 1 mM MgCl2, 0.005% P20; settings: protein: ivt;recombinant; tags: C-terminal GS peptide;N-terminal His6; copies: 1;1; 5' overhang 15 nt on strand 1
T1 sequence 1: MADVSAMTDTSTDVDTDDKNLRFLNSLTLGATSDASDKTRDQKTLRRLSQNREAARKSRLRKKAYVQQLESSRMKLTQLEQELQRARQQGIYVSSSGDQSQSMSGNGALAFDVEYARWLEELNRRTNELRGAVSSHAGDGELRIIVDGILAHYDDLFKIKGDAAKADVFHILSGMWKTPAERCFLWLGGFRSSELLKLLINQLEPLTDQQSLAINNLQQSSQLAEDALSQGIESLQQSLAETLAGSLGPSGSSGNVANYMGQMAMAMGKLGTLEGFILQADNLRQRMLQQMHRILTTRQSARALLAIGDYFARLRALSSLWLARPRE
T1 sequence 2: B1 chain

StTGA2.1 (mini-TGA) = molecular target: T2, StTGA2.1 (mini-TGA) (Solanum tuberosum cv. Rywal, UniProt A0A9F1U434 1-270); test: SPR; 18.75-300 nM protein; 180 mM NaCl; 1 mM Mg2+; SPR Biacore T200, 25 C, 25 mM Tris pH 7.4, 140 mM NaCl (180 mM for StTGA2.1 alone), 1 mM MgCl2, 0.005% P20; settings: protein: recombinant; tags: N-terminal His6; chain copies: 2; 5' overhang 15 nt on strand 1
T2 sequence: B1 chain

StTGA2.3 [4] = molecular target: T3, StTGA2.3 (Solanum tuberosum cv. Rywal, UniProt A0A9F1U446 1-327); test: SPR; 1 mM Mg2+; dose-dependent response; SPR Biacore T200, 25 C, 25 mM Tris pH 7.4, 140 mM NaCl (180 mM for StTGA2.1 alone), 1 mM MgCl2, 0.005% P20; settings: protein: ivt; tags: C-terminal GS peptide; chain copies: 2; 5' overhang 15 nt on strand 1
T3 sequence: T1 sequence 1

StTGA2.3 [5] = molecular target: T3, StTGA2.3; test: SPR; 1 mM Mg2+; interaction negligible; SPR Biacore T200, 25 C, 25 mM Tris pH 7.4, 140 mM NaCl (180 mM for StTGA2.1 alone), 1 mM MgCl2, 0.005% P20; settings: protein: ivt; tags: C-terminal GS peptide; chain copies: 2; 5' overhang 15 nt on strand 1

| Molecule | binding result [3] | binding result (StTGA2.1 (mini-TGA)) | binding result (StTGA2.3 [4]) | binding result (StTGA2.3 [5]) | also measured |
| --- | --- | --- | --- | --- | --- |
| StTGA2.1, GFP- or HA-tagged, expressed in N. benthamiana (natural protein) | – | – | – | – | StPRX07::LucF promoter activity (luciferase transactivation assay) in N. benthamiana leaves coexpressing GFP-tagged StTGA2.1 and BFP-tagged StTGA2.3, compared to control [1]: > 2 fold |
| B1 | – | – | – | – | stoichiometry N [2]: 2 |
| B2 | binds | no binding | binds | – | – |
| B3 | binds | no binding | binds | – | – |
| B4 | – | no binding | – | no binding | – |
| B5 | – | no binding | – | no binding | – |
